B1: 1.33.1-1 (antibody, human IgG1, kappa)
heavy: QVQLVQSGAEVKKPGASVRVSCKASGYNIRDYFIHWWRQAPGQGLQWVGWINPKTGQPNNPRQFQGRVTLTRHASWDFDTFSFYMDLKALRSDDTATYFCARQRSDYWDFDVWGSGTQVTVSSASTKGPSVFPLAPSSKSTSGGTAALGCLVKDYFPEPVTVSWNSGALTSGVHTFPAVLQSSGLYSLSSVVTVPSSSLGTQTYICNVNHKPSNTKVDKKVEPKSCDKTHTCPPCPAPELLAGPDVFLFPPKPKDTLMISRTPEVTCVVVDVSHEDPEVKFNWYVDGVEVHNAKTKPREEQYNSTYRVVSVLTVLHQDWLNGKEYKCKVSNKALPLPEEKTISKAKGQPREPQVYTLPPSREEMTKNQVSLTCLVKGFYPSDIAVEWESNGQPENNYKTTPPVLDSDGSFFLYSKLTVDKSRWQQGNVFSCSVLHEALHSHYTQKSLSLSPGK
light: DIQMTQSPSSLSASVGDTVTITCQANGYLNWYQQRRGKAPKLLIYDGSKLERGVPSRFSGRRWGQEYNLTINNLQPEDIATYFCQVYEFVVPGTRLDLKRTVAAPSVFIFPPSDEQLKSGTASVVCLLNNFYPREAKVQWKVDNALQSGNSQESVTEQDSKDSTYSLSSTLTLSKADYEKHKVYACEVTHQGLSSPVTKSFNRGEC
B2: 1.33.33-1 (antibody, human IgG1, kappa)
heavy: QVQLVQSGAEVKKPGASVRVSCKASGYNIRDYFIHWWRQAPGQGLQWVGWINPKTGQPNNPRQFQGRVTLTRHASWDFDTFSFYMDLKALRSDDTATYFCARQRSDYWDFDVWGSGTQVTVSSASTKGPSVFPLAPSSKSTSGGTAALGCLVKDYFPEPVTVSWNSGALTSGVHTFPAVLQSSGLYSLSSVVTVPSSSLGTQTYICNVNHKPSNTKVDKKVEPKSCDKTHTCPPCPAPELLAGPDVFLFPPKPKDTLMISRTPEVTCVVVDVSHEDPEVKFNWYVDGVEVHNAKTKPREEQYNSTYRVVSVLTVLHQDWLNGKEYKCKVSNKALPLPEEKTISKAKGQPREPQVYTLPPSREEMTKNQVSLTCLVKGFYPSDIAVEWESNGQPENNYKTTPPVLDSDGSFFLYSKLTVDKSRWQQGNVFSCSVLHEALHSHYTQKSLSLSPGK
light: DIQMTQSPSSLSASVGDTVTITCQANGYLNWYQQRRGKAPKLLIYDGSNLERGVPSRFSGRRWGQEYTLTISSLQPEDIATYFCQVYEFVVPGTNLDIKRTVAAPSVFIFPPSDEQLKSGTASVVCLLNNFYPREAKVQWKVDNALQSGNSQESVTEQDSKDSTYSLSSTLTLSKADYEKHKVYACEVTHQGLSSPVTKSFNRGEC
B3: 1.33.31-1 (antibody, human IgG1, kappa)
heavy: QVQLVQSGAEVKKPGASVRVSCKASGYNIRDYFIHWWRQAPGQGLQWVGWINPKTGQPNNPRQFQGRVTLTRHASWDFDTFSFYMDLKALRSDDTATYFCARQRSDYWDFDVWGSGTQVTVSSASTKGPSVFPLAPSSKSTSGGTAALGCLVKDYFPEPVTVSWNSGALTSGVHTFPAVLQSSGLYSLSSVVTVPSSSLGTQTYICNVNHKPSNTKVDKKVEPKSCDKTHTCPPCPAPELLAGPDVFLFPPKPKDTLMISRTPEVTCVVVDVSHEDPEVKFNWYVDGVEVHNAKTKPREEQYNSTYRVVSVLTVLHQDWLNGKEYKCKVSNKALPLPEEKTISKAKGQPREPQVYTLPPSREEMTKNQVSLTCLVKGFYPSDIAVEWESNGQPENNYKTTPPVLDSDGSFFLYSKLTVDKSRWQQGNVFSCSVLHEALHSHYTQKSLSLSPGK
light: DIQMTQSPSSLSASVGDTVTITCQANGYLNWYQQRRGKAPKLLIYDGSKLERGVPSRFSGRRWGQEYTLTISSLQPEDIATYFCQVYEFVVPGTNLDLKRTVAAPSVFIFPPSDEQLKSGTASVVCLLNNFYPREAKVQWKVDNALQSGNSQESVTEQDSKDSTYSLSSTLTLSKADYEKHKVYACEVTHQGLSSPVTKSFNRGEC
B4: 1.34.1-1 (antibody, human IgG1, kappa)
heavy: QVQLVQSGAEVKKPGASVRVSCKASGYNIRDYFIHWWRQAPGQGLQWVGWINPKTGQPNNPRQFQGRVTLTRHASWDFDTFSFYMDLKALRSDDTAVYFCARQRTDYWDFDVWGSGTQVTVSSASTKGPSVFPLAPSSKSTSGGTAALGCLVKDYFPEPVTVSWNSGALTSGVHTFPAVLQSSGLYSLSSVVTVPSSSLGTQTYICNVNHKPSNTKVDKKVEPKSCDKTHTCPPCPAPELLAGPDVFLFPPKPKDTLMISRTPEVTCVVVDVSHEDPEVKFNWYVDGVEVHNAKTKPREEQYNSTYRVVSVLTVLHQDWLNGKEYKCKVSNKALPLPEEKTISKAKGQPREPQVYTLPPSREEMTKNQVSLTCLVKGFYPSDIAVEWESNGQPENNYKTTPPVLDSDGSFFLYSKLTVDKSRWQQGNVFSCSVLHEALHSHYTQKSLSLSPGK
light: DIQMTQSPSSLSASVGDTVTITCQANGYLNWYQQRRGKAPKLLIYDGSKLERGVPSRFSGRRWGQEYNLTINNLQPEDIATYFCQVYEFVVPGTRLDLKRTVAAPSVFIFPPSDEQLKSGTASVVCLLNNFYPREAKVQWKVDNALQSGNSQESVTEQDSKDSTYSLSSTLTLSKADYEKHKVYACEVTHQGLSSPVTKSFNRGEC
B5: 1.33.34-1 (antibody, human IgG1, kappa)
heavy: QVQLVQSGAEVKKPGASVRVSCKASGYNIRDYFIHWWRQAPGQGLQWVGWINPKTGQPNNPRQFQGRVTLTRHASWDFDTFSFYMDLKALRSDDTATYFCARQRSDYWDFDVWGSGTQVTVSSASTKGPSVFPLAPSSKSTSGGTAALGCLVKDYFPEPVTVSWNSGALTSGVHTFPAVLQSSGLYSLSSVVTVPSSSLGTQTYICNVNHKPSNTKVDKKVEPKSCDKTHTCPPCPAPELLAGPDVFLFPPKPKDTLMISRTPEVTCVVVDVSHEDPEVKFNWYVDGVEVHNAKTKPREEQYNSTYRVVSVLTVLHQDWLNGKEYKCKVSNKALPLPEEKTISKAKGQPREPQVYTLPPSREEMTKNQVSLTCLVKGFYPSDIAVEWESNGQPENNYKTTPPVLDSDGSFFLYSKLTVDKSRWQQGNVFSCSVLHEALHSHYTQKSLSLSPGK
light: DIQMTQSPSSLSASVGDTVTITCQANGYLNWYQQRRGKAPKLLIYDGSNLERGVPSRFSGRRWGQEYTLTISSLQPEDIATYFCQVYEFVTPGTRLDIKRTVAAPSVFIFPPSDEQLKSGTASVVCLLNNFYPREAKVQWKVDNALQSGNSQESVTEQDSKDSTYSLSSTLTLSKADYEKHKVYACEVTHQGLSSPVTKSFNRGEC
B6: 1.34.32-1 (antibody, human IgG1, kappa)
heavy: QVQLVQSGAEVKKPGASVRVSCKASGYNIRDYFIHWWRQAPGQGLQWVGWINPKTGQPNNPRQFQGRVTLTRHASWDFDTFSFYMDLKALRSDDTAVYFCARQRTDYWDFDVWGSGTQVTVSSASTKGPSVFPLAPSSKSTSGGTAALGCLVKDYFPEPVTVSWNSGALTSGVHTFPAVLQSSGLYSLSSVVTVPSSSLGTQTYICNVNHKPSNTKVDKKVEPKSCDKTHTCPPCPAPELLAGPDVFLFPPKPKDTLMISRTPEVTCVVVDVSHEDPEVKFNWYVDGVEVHNAKTKPREEQYNSTYRVVSVLTVLHQDWLNGKEYKCKVSNKALPLPEEKTISKAKGQPREPQVYTLPPSREEMTKNQVSLTCLVKGFYPSDIAVEWESNGQPENNYKTTPPVLDSDGSFFLYSKLTVDKSRWQQGNVFSCSVLHEALHSHYTQKSLSLSPGK
light: DIQMTQSPSSLSASVGDTVTITCQANGYLNWYQQRRGKAPKLLIYDGSKLERGVPSRFSGRRWGQEYTLTISSLQPEDIATYFCQVYEFVTPGTRLDLKRTVAAPSVFIFPPSDEQLKSGTASVVCLLNNFYPREAKVQWKVDNALQSGNSQESVTEQDSKDSTYSLSSTLTLSKADYEKHKVYACEVTHQGLSSPVTKSFNRGEC
B7: 1.34.31-1 (antibody, human IgG1, kappa)
heavy: QVQLVQSGAEVKKPGASVRVSCKASGYNIRDYFIHWWRQAPGQGLQWVGWINPKTGQPNNPRQFQGRVTLTRHASWDFDTFSFYMDLKALRSDDTAVYFCARQRTDYWDFDVWGSGTQVTVSSASTKGPSVFPLAPSSKSTSGGTAALGCLVKDYFPEPVTVSWNSGALTSGVHTFPAVLQSSGLYSLSSVVTVPSSSLGTQTYICNVNHKPSNTKVDKKVEPKSCDKTHTCPPCPAPELLAGPDVFLFPPKPKDTLMISRTPEVTCVVVDVSHEDPEVKFNWYVDGVEVHNAKTKPREEQYNSTYRVVSVLTVLHQDWLNGKEYKCKVSNKALPLPEEKTISKAKGQPREPQVYTLPPSREEMTKNQVSLTCLVKGFYPSDIAVEWESNGQPENNYKTTPPVLDSDGSFFLYSKLTVDKSRWQQGNVFSCSVLHEALHSHYTQKSLSLSPGK
light: DIQMTQSPSSLSASVGDTVTITCQANGYLNWYQQRRGKAPKLLIYDGSKLERGVPSRFSGRRWGQEYTLTISSLQPEDIATYFCQVYEFVVPGTNLDLKRTVAAPSVFIFPPSDEQLKSGTASVVCLLNNFYPREAKVQWKVDNALQSGNSQESVTEQDSKDSTYSLSSTLTLSKADYEKHKVYACEVTHQGLSSPVTKSFNRGEC
B8: 1.33.32-1 (antibody, human IgG1, kappa)
heavy: QVQLVQSGAEVKKPGASVRVSCKASGYNIRDYFIHWWRQAPGQGLQWVGWINPKTGQPNNPRQFQGRVTLTRHASWDFDTFSFYMDLKALRSDDTATYFCARQRSDYWDFDVWGSGTQVTVSSASTKGPSVFPLAPSSKSTSGGTAALGCLVKDYFPEPVTVSWNSGALTSGVHTFPAVLQSSGLYSLSSVVTVPSSSLGTQTYICNVNHKPSNTKVDKKVEPKSCDKTHTCPPCPAPELLAGPDVFLFPPKPKDTLMISRTPEVTCVVVDVSHEDPEVKFNWYVDGVEVHNAKTKPREEQYNSTYRVVSVLTVLHQDWLNGKEYKCKVSNKALPLPEEKTISKAKGQPREPQVYTLPPSREEMTKNQVSLTCLVKGFYPSDIAVEWESNGQPENNYKTTPPVLDSDGSFFLYSKLTVDKSRWQQGNVFSCSVLHEALHSHYTQKSLSLSPGK
light: DIQMTQSPSSLSASVGDTVTITCQANGYLNWYQQRRGKAPKLLIYDGSKLERGVPSRFSGRRWGQEYTLTISSLQPEDIATYFCQVYEFVTPGTRLDLKRTVAAPSVFIFPPSDEQLKSGTASVVCLLNNFYPREAKVQWKVDNALQSGNSQESVTEQDSKDSTYSLSSTLTLSKADYEKHKVYACEVTHQGLSSPVTKSFNRGEC

Legend:
BSA = BSA (UniProt P02769 25-607); experiment: single-point ELISA, BSA control
gp120 Bal = gp120 Bal (HIV (Bal)); experiment: single-point ELISA at EC50 conc. of A-1
gp120 SHIV SF162 P3 = gp120 SHIV SF162 P3 (SHIV SF162 P3); experiment: single-point ELISA at EC50 conc. of A-1
gp120 CAAN = gp120 CAAN (HIV (CAAN)); experiment: single-point ELISA at EC50 conc. of A-1

Binder	ELISA A450 (BSA) [A450]	ELISA A450 (gp120 Bal) [A450]	ELISA A450 (gp120 SHIV SF162 P3) [A450]	ELISA A450 (gp120 CAAN) [A450]
B1	0.06	0.88	0.96	0.98
B2	0.07	1.09	0.97	1.06
B3	0.07	0.92	0.89	1.18
B4	0.07	0.83	0.79	0.9
B5	0.06	0.95	0.82	0.95
B6	0.06	0.93	0.69	0.97
B7	0.06	0.91	0.77	0.92
B8	0.07	0.98	0.98	1.13

Reference: patent publication US20240034774A1 (Gilead, published 2024)
